Patent US20240158497A1 (published 2024)

T1: Macaca Fascicularis GP130 extracellular domain expressed with a C-terminal myc-myc-hexahistidine tag (Macaca fascicularis, UniProt P40189 23-619 (human entry))
T1 construct: also called mfGP130-MMH; mfGP130-mmH
T1 chain: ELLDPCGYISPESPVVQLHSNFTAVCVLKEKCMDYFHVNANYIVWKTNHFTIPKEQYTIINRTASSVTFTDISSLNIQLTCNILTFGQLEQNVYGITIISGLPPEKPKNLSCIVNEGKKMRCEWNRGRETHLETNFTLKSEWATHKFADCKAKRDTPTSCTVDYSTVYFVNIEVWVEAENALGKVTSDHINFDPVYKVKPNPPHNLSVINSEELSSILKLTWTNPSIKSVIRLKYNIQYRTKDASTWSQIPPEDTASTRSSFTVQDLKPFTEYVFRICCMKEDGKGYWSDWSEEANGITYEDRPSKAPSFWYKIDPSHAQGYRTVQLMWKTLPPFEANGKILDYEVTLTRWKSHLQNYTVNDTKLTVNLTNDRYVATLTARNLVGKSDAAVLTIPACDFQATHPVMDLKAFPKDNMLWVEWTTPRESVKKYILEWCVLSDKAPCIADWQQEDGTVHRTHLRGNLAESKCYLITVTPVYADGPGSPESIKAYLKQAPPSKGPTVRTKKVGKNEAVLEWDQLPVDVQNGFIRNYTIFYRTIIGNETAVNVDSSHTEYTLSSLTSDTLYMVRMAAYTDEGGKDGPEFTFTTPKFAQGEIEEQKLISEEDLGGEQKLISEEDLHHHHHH


Legend:
[1] = target: T2, Macaca Fascicularis LEPR extracellular domain expressed with a C-terminal myc-myc-hexahistidine tag (Macaca fascicularis, UniProt Q9MYL0 22-837 (rhesus entry)); assay: SPR Biacore 4000, bsAb captured by anti-human Fc, 37 C
T2 construct: Monomeric reagent; the whole entry is the construct with its tag; also called mfLEPR-MMH
Method: (§1) Equilibrium dissociation constants (KD values) for LEPR and GP130 binding to purified anti-LEPR/GP130 bispecific antibodies were determined using a real-time surface plasmon resonance biosensor using a Biacore 4000 instrument. All binding studies were performed in 10 mM HEPES, 150 mM NaCl, 3 mM EDTA, and 0.05% v/v Surfactant Tween-20, pH 7.4 (HBS-ET) running buffer at 25° C. and 37° C. The Biacore sensor surface was first derivatized by amine coupling with a monoclonal mouse anti-human Fc antibody (GE, #BR-1008-39) to capture anti-LEPR/GP130 bispecific antibodies. […] Different concentrations of LEPR or GP130 reagents were first prepared in HBS-ET running buffer (100 nM-3.7 nM; 3-fold serial dilution) and were injected over anti-human Fc captured anti-LEPR/GP130 bispecific antibody surface for 4 minutes at a flow rate of 30 μL/minute, while the dissociation of bispecific antibody bound LEPR or GP130 reagent was monitored for 10 minutes in HBS-ET running buffer. Kinetic association (kₐ) and dissociation (kd) rate constants were determined by fitting the real-time binding sensorgrams to a 1:1 binding model with mass transport limitation using Scrubber 2.0c curve-fitting software. Binding dissociation equilibrium constants (KD) and dissociative half-lives (t ½) were calculated from the kinetic rate constants as: […]

[2] = target: T3, human LEPR extracellular domain expressed with a C-terminal myc-myc-hexahistidine tag (human, UniProt P48357 22-839); assay: as above
T3 construct: Monomeric reagent; the whole entry is the construct with its tag; also called hLEPR-MMH; hLEPR.mmh
Method: as §1

[3] = target: T2, Macaca Fascicularis LEPR extracellular …; assay: SPR Biacore 4000, bsAb captured by anti-human Fc, 25 C
Method: as §1

[4] = target: T3, human LEPR extracellular domain …; assay: as above
Method: as §1

[5] = target: T1, Macaca Fascicularis GP130 extracellular …; assay: SPR, bsAb captured by anti-hFc, 37C
Method: as §1

[6] = target: T4, human GP130 extracellular domain expressed with a C-terminal myc-myc-hexahistidine tag (human, UniProt P40189 23-619); assay: SPR, bsAb captured by anti-hFc, 37C
T4 construct: also called hGP130-MMH; hGP130-mmH
Method: as §1

[7] = target: T1, Macaca Fascicularis GP130 extracellular …; assay: SPR, bsAb captured by anti-hFc, 25C
Method: as §1

[8] = target: T4, human GP130 extracellular domain …; assay: SPR, bsAb captured by anti-hFc, 25C
Method: as §1

100 nM mfLEPR-MMH Bound (RU) [1] [RU] | 100 nM hLEPR-MMH Bound (RU) [2] [RU] | Kd [2] [nM] | koff [2] [s⁻¹] | kon [2] [M⁻¹ s⁻¹] | t½ [2] [s] | 100 nM mfLEPR-MMH Bound (RU) [3] [RU] | Kd [3] [nM] | koff [3] [s⁻¹] | kon [3] [M⁻¹ s⁻¹] | Kd [4] [nM] | koff [4] [s⁻¹] | kon [4] [M⁻¹ s⁻¹] | 100 nM mfGP130-MMH Bound (RU) [5] [RU] | 100 nM hGP130-MMH Bound (RU) [6] [RU] | 100 nM mfGP130-MMH Bound (RU) [7] [RU] | 100 nM hGP130-MMH Bound (RU) [8] [RU] | Kd [5] [nM] | koff [5] [s⁻¹] | kon [5] [M⁻¹ s⁻¹] | Binder | also measured
27 | 15 | 280 | 0.00442 | 15800 | 156 | 16 | 37.8 | 0.00116 | 30800 | 78.7 | 0.00121 | 15300 | – | – | – | – | – | – | – | bsAb21237D (bispecific antibody, V domains shown, common light chain; also called H4H21237D) VH 1: EVQLVESGGGLVQPGGSLRLSCAASGFTFSNYGMTWVRQAPGKGLEWVSAITGGGGSTYYSNSVKGRFTISRDNSKNTVYLRMNSVRAEDTAVYYCAKYKWNFVDDWGQGTTVTVSS VH 2: QVQLVESGGGLVKPGGSLRLSCAASGFTFSDYYMTWIRQTPGKGLDWVSYISSSGTNKYNADSVKGRFTISRDNAKNSLYLQMNSLRAEDTAVYYCVRDPPWGMDVWGQGTTVTVSS VL: not shown | Kd [1]: 151 nM; koff [1]: 0.00424 s⁻¹; kon [1]: 28100 M⁻¹ s⁻¹; t½ [1]: 162 s; 100 nM hLEPR-MMH Bound (RU) [4]: 11 RU
– | – | – | – | – | – | – | – | – | – | – | – | – | 3 | – | 5 | – | – | – | – | bsAb19147D (bispecific antibody, V domains shown, LEPR x GP130 bispecific with common light chain) VH 1: QVQLVESGGGVVQPGRSLRLSCTASGFTFSSYAMYWVRQAPGKGLEWVSVIYYDGSYKYYADSVKGRFTISRDNSKNTLYLQMDSLRAEDTAVYYCASYNWNYWYFDFWGRGTLVTVSS VH 2: EVQLVESGGGLVQPGGSLRLSCTASGFTFSNYAIFWVRQAPGKGLEYVSGISNNGVTKYYADSVRDRFTISRDNSRNTVSIQMDSLRTEDMAVYYCARENWGSDDGFDIWGQGTMVTVSS VL: not shown | binding result [5]: no binding (tested: 100 nM)
– | – | – | – | – | – | – | – | – | – | – | – | – | 14 | 19 | 20 | 23 | 183 | 0.146 | 797000 | bsAb19140D (bispecific antibody, V domains shown, LEPR x GP130 bispecific with common light chain) VH 1: QVQLVESGGGVVQPGRSLRLSCTASGFTFSSYAMYWVRQAPGKGLEWVSVIYYDGSYKYYADSVKGRFTISRDNSKNTLYLQMDSLRAEDTAVYYCASYNWNYWYFDFWGRGTLVTVSS VH 2: QVQLQESGPGLVKPSETLSLTCTVSGGSISNYYWTWIRQPPGKGLEWIGHISNSGTTNYNPSLKSRVTISVDTSKNQFSLKLTSVTAADTAVYYCARLPLGIAAVDTDYYYYFGMDVWGQGTTVTVSS VL: not shown | t½ [5]: 6 s; Kd [6]: 144 nM; koff [6]: 0.12 s⁻¹; kon [6]: 829000 M⁻¹ s⁻¹; t½ [6]: 6 s; Kd [7]: 136 nM; koff [7]: 0.0546 s⁻¹; kon [7]: 402000 M⁻¹ s⁻¹; t½ [7]: 12 s; Kd [8]: 105 nM; koff [8]: 0.0477 s⁻¹; kon [8]: 455000 M⁻¹ s⁻¹; t½ [8]: 12 s
– | – | – | – | – | – | – | – | – | – | – | – | – | 15 | 15 | 15 | 15 | 212 | 0.0513 | 242000 | bsAb19141D (bispecific antibody, V domains shown, LEPR x GP130 bispecific with common light chain) VH 1: QVQLVESGGGVVQPGRSLRLSCTASGFTFSSYAMYWVRQAPGKGLEWVSVIYYDGSYKYYADSVKGRFTISRDNSKNTLYLQMDSLRAEDTAVYYCASYNWNYWYFDFWGRGTLVTVSS VH 2: EVQLVESGGGVVRPGGSLRLSCTASGFTFDDYGMSWVRQAPGKGLEWVSGINWNGGRTEYADAVKGRFIISRDNAKNSLYLQMNSLRAEDTALYFCARTELRWDYWGQGTLVTVSS VL: not shown | t½ [5]: 12 s; Kd [6]: 347 nM; koff [6]: 0.0621 s⁻¹; kon [6]: 179000 M⁻¹ s⁻¹; t½ [6]: 12 s; Kd [7]: 184 nM; koff [7]: 0.0207 s⁻¹; kon [7]: 112000 M⁻¹ s⁻¹; t½ [7]: 36 s; Kd [8]: 219 nM; koff [8]: 0.0232 s⁻¹; kon [8]: 106000 M⁻¹ s⁻¹; t½ [8]: 30 s

Second part, the binder before the results:

Binder | 100 nM mfLEPR-MMH Bound (RU) [1] [RU] | 100 nM hLEPR-MMH Bound (RU) [2] [RU] | Kd [2] [nM] | koff [2] [s⁻¹] | kon [2] [M⁻¹ s⁻¹] | t½ [2] [s] | 100 nM mfLEPR-MMH Bound (RU) [3] [RU] | Kd [3] [nM] | koff [3] [s⁻¹] | kon [3] [M⁻¹ s⁻¹] | Kd [4] [nM] | koff [4] [s⁻¹] | kon [4] [M⁻¹ s⁻¹] | 100 nM mfGP130-MMH Bound (RU) [5] [RU] | 100 nM hGP130-MMH Bound (RU) [6] [RU] | 100 nM mfGP130-MMH Bound (RU) [7] [RU] | 100 nM hGP130-MMH Bound (RU) [8] [RU] | Kd [5] [nM] | koff [5] [s⁻¹] | kon [5] [M⁻¹ s⁻¹] | also measured
bsAb21236D (bispecific antibody, V domains shown, common light chain; also called H4H21236D) VH 1: QVQLQESGPGLVKPSQTLSLTCTVSGGSISSGGDYWSWIRQLPGKGLEWIGYIYYSGSAYYNPSLKSRGTISIDTSKNQFSLKLTSVTAADTAVYFCVKLRFLEWFLGGWFGPWGQGTLVTVSS VH 2: QVQLVESGGGLVKPGGSLRLSCAASGFTFSDYYMTWIRQTPGKGLDWVSYISSSGTNKYNADSVKGRFTISRDNAKNSLYLQMNSLRAEDTAVYYCVRDPPWGMDVWGQGTTVTVSS VL: not shown | 9 | 5 | 726 | 0.0131 | 18000 | 54 | 12 | 83.4 | 0.00482 | 57900 | 106 | 0.00372 | 35100 | – | – | – | – | – | – | – | Kd [1]: 284 nM; koff [1]: 0.0176 s⁻¹; kon [1]: 61900 M⁻¹ s⁻¹; t½ [1]: 42 s; t½ [3]: 144 s; t½ [4]: 3.1 min
bsAb19758D (bispecific antibody, V domains shown, common light chain) VH 1: EVQLVESGGGLVQPGGSLRLSCVASGFTFNKYDMHWVRQTTGKGLEWVSGIDTDGDTYYPGSVKGRFTISRENAENSLYLQMNGLRVGDTAVYYCARWPWSGFYGAFDIWGQGTMVTVSS VH 2: EVQLVESGGGLVQSGGSLRLSCAASGFTFSRYEMNWVRQAPGKGLEWVAYISNTGTTRDYSDSVKGRFTISRDNAKNSLYLQMSSLRVEDTAVYYCVREKFSGTSDWFDPWGQGTLVTVSS VL: not shown | 5 | 73 | 20.6 | 0.000663 | 32300 | 1020 | 9 | 583 | 0.0225 | 38600 | 10.3 | 0.000163 | 15900 | – | – | – | – | – | – | – | t½ [3]: 30 s; 100 nM hLEPR-MMH Bound (RU) [4]: 54 RU; t½ [4]: 71 min
bsAb19139D (bispecific antibody, V domains shown, LEPR x GP130 bispecific with common light chain) VH 1: QVQLVESGGGVVQPGRSLRLSCTASGFTFSSYAMYWVRQAPGKGLEWVSVIYYDGSYKYYADSVKGRFTISRDNSKNTLYLQMDSLRAEDTAVYYCASYNWNYWYFDFWGRGTLVTVSS VH 2: QVQLVESGGGVVQPGGSLRLSCAASGFTFSTYDIHWVRQAPGKGLEWVAVISFDGSNRNYGDSVKGRFTISRDNSDNTLFLEMNNLRFEDTAVYYCAKEGYGVDFQHWGQGTLVTVSS VL: not shown | – | – | – | – | – | – | – | – | – | – | – | – | – | 2 | 3 | 6 | 6 | – | – | – | binding result [5]: no binding (tested: 100 nM); binding result [6]: no binding (tested: 100 nM)
bsAb19142D (bispecific antibody, V domains shown, LEPR x GP130 bispecific with common light chain) VH 1: QVQLVESGGGVVQPGRSLRLSCTASGFTFSSYAMYWVRQAPGKGLEWVSVIYYDGSYKYYADSVKGRFTISRDNSKNTLYLQMDSLRAEDTAVYYCASYNWNYWYFDFWGRGTLVTVSS VH 2: EVQLVESGGGLVQPGGSLRLSCAASGLTFSSYEMNWVRQAPGKGLEWVSHISSAGSTKYYADSVKGRFTISRDNAKNSLFLQMNSLRAEDTAIYYCAGYNYAYYYFGVDVWGQGTTVTVSS VL: not shown | – | – | – | – | – | – | – | – | – | – | – | – | – | 33 | 37 | 28 | 31 | 21.6 | 0.00715 | 332000 | t½ [5]: 96 s; Kd [6]: 17.5 nM; koff [6]: 0.00622 s⁻¹; kon [6]: 356000 M⁻¹ s⁻¹; t½ [6]: 114 s; Kd [7]: 31.2 nM; koff [7]: 0.00374 s⁻¹; kon [7]: 120000 M⁻¹ s⁻¹; t½ [7]: 186 s; Kd [8]: 19 nM; koff [8]: 0.00329 s⁻¹; kon [8]: 173000 M⁻¹ s⁻¹; t½ [8]: 240 s
